Measured values as given in IntAct's records for PubMed 16443932.

Molecular target: cdc42_human CDC42 (UniProt P60953)
UniProt P60953, sequence (P60953 whole entry, looked up): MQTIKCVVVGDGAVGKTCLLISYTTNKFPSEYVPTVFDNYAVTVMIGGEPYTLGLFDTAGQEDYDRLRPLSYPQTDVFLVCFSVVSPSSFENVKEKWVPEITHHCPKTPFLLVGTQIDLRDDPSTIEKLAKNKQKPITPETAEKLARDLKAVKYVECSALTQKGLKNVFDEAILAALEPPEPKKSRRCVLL

effect of a mutation on the interaction: disrupting interaction strength
Substance: Phospholipid-transporting ATPase ABCA1 (Homo sapiens), O95477 K939M
